According to publication PMC4036514, “Requirement for A-type cyclin-dependent kinase and cyclins for the terminal division in the stomatal lineage of Arabidopsis”:

T1: His-FLP (FOUR LIPS) (Arabidopsis thaliana, UniProt Q94FL6 1-436)
T1 sequence: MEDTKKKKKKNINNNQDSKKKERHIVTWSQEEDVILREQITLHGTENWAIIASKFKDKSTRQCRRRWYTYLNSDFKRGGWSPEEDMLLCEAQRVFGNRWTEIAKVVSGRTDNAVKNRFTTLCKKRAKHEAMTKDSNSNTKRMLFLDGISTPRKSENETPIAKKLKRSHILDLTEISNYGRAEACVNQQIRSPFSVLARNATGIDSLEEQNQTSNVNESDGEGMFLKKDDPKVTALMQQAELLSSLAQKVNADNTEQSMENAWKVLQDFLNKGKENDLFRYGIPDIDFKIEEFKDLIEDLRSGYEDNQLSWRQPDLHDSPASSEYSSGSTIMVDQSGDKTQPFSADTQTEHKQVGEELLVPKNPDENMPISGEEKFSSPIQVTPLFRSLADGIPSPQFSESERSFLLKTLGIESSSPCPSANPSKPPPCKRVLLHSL

T2: His-MYB88 (Arabidopsis thaliana, UniProt F4IRB4 1-484)
T2 sequence: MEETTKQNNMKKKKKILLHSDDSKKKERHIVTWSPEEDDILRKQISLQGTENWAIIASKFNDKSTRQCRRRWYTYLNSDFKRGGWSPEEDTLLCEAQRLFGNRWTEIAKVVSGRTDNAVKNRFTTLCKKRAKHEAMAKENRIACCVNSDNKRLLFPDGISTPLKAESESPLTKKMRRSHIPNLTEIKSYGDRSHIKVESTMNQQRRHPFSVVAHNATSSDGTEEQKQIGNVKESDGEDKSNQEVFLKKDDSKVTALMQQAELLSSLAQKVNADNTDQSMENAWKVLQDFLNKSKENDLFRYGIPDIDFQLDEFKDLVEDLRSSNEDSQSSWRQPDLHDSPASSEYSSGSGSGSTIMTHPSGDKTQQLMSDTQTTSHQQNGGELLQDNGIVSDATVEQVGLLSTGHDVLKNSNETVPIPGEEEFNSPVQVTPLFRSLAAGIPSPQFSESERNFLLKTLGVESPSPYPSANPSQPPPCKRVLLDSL

B1: pCDKA-C+D (elements C and D) (dsDNA)
DNA 1: TTACTCTCAATTAGTCAATCCCCTTCCCTAGTCCTCCTCTCTTCAAGCTTTTCACAGAA
DNA 2: TTCTGTGAAAAGCTTGAAGAGAGGAGGACTAGGGAAGGGGATTGACTAATTGAGAGTAA
B2: pCDKA-A (element A) (dsDNA)
DNA 1: TAATAAATAAAATTGTACCAAATTAATGCGGTTAGGTAAATTCAATTTATTGGAAATTA
DNA 2: TAATTTCCAATAAATTGAATTTACCTAACCGCATTAATTTGGTACAATTTTATTTATTA
B3: pCDKA-B (element B) (dsDNA)
DNA 1: CTTGACACAAAAAAAAAAAAAGAAGAAAGAAAAAACCCTTACTCTCAATTAGTCAATCC
DNA 2: GGATTGACTAATTGAGAGTAAGGGTTTTTTCTTTCTTCTTTTTTTTTTTTTGTGTCAAG

Legend:
His-FLP (FOUR LIPS) = biological target: T1, His-FLP (FOUR LIPS); assay: EMSA; EMSA: 1x LightShift binding buffer, 2.5% glycerol, 50 mM KCl, 5 mM MgCl2, 0.05% NP-40, 10 mM EDTA, room temperature 20 min; pH not stated; conditions: protein: recombinant; tags: His (pET-28a); label: 3' biotin; blunt
His-MYB88 = biological target: T2, His-MYB88; assay: as above; conditions: protein: recombinant; tags: His (pET-28a); label: 3' biotin; blunt

Binder	binding result (His-FLP (FOUR LIPS))	binding result (His-MYB88)
B1	binds	binds
B2	binds	binds
B3	binds	binds
